This is an account of results in the RNAGym collection of RNA variant scans (doi:10.1073/pnas.2313332121).

First the molecules themselves.
B1: TPR t1 (parent)
chain: GACCAAUCUGCCCUCAGAGCUCGAGAACAUCUUCGGAUGCAGAGGAGGCAGGCUUCGGUGGCGCGAUAGCGCCAACGUCCUCAACCUCCAAUGCAUCCCACCACAUGAUGAUGCCUGAAGAGCCUUGGUUUUUUG

In the series the parent is B1. In words: polymerase ribozyme fitness, log enrichment relative to wild type (log ratio); higher = more active; in vitro selection for triplet polymerase activity. In a few lines: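 Mutant libraries were PCR-built and transcribed for each subunit of a heterodimeric triplet polymerase ribozyme and selected for one round in triplicate at −7 °C, frozen, before gel excision of extended constructs and streptavidin-bead capture. Input and output libraries were Illumina-sequenced, keeping genotypes with ≥10 input reads and ≥1 read per output. Fitness is a logarithmic ratio of genotype to wild-type enrichment, in base 2, using inverse-variance-weighted replicate averages.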
Turning to G10U C89A C114A, the “polymerase ribozyme fitness (log ratio)” value is -2.81.
In the case of G10C C73G C85G, the “polymerase ribozyme fitness (log ratio)” value is -2.53.
G10C C15G G69C: the “polymerase ribozyme fitness (log ratio)” value is -4.46.
As to G10C G61U U109C, the “polymerase ribozyme fitness (log ratio)” value is -5.18.
As for C11A C12A A41G C89U, the figure is -2.15.
Turning to G10U G39C A46C U116G, the “polymerase ribozyme fitness (log ratio)” value is -3.17.
As for C11A A18U A26G G39U G42A G45A G60A U133A, the figure is -6.17; as for G10U C15G G19U G63A G113U C124A, -5.07; as for C11A A95G, -1.37.
Turning to G10U G63U, the “polymerase ribozyme fitness (log ratio)” value was -1.31.
As for G10U A91G C101U, the figure is -0.603; as for G10C G36A, -1.22.
As for G10U G47A, the figure is -0.776; as for G10C G71A U81C A100U, -3.62; as for G10U A43U G45C U78A, -2.4.
As for G10A G93A, the figure is 0.205; as for G10U C11G, 0.195; as for G10C C11U C20U G48A C82U, -3.
G10U G77A U106G: the “polymerase ribozyme fitness (log ratio)” value is -2.38.
As for G10U C62U C72A C88U C89G A121G U132C, the figure is -1.87; as for G10A U33C C86A A111U, -6.34.
As for G10C A74G, the figure is -1.26; as for G10C C64U C79U A105G, -3.38.
As for G10C U32C G52A G69C U112A G128A, the figure is -4.78; as for G10U C31G G39C C64U G110A G113U, -6.42.
With G10C C11G C22G C76U, the “polymerase ribozyme fitness (log ratio)” value was -4.64.
As for G10U C28G G60A C85A U131G, the figure is -4.5; as for G10U U59C U96G G117A, -4.44; as for G10A G51U G71U C101A, -6.07.
As for G10C U14A G48A G110A, the figure is -3.91; as for G10U U14A U116C A121C, -4.9.
On to G10U C94U, for which the “polymerase ribozyme fitness (log ratio)” value is -0.599.
In the case of G10U C73A U78G A111G, the “polymerase ribozyme fitness (log ratio)” value is 0.173.
As for G10A G110A, the figure is -1.12.
As for G10C C12A A18C G42U G71A G117U G122U U130G, the figure is -3.23; as for G10U C73G U92A C101U C104U, -4.21; as for G10C G19C A43G C72U U112C C123A, -1.54.
For G10A G128U, the “polymerase ribozyme fitness (log ratio)” value was -2.02.
With G10U U55A G71C, the “polymerase ribozyme fitness (log ratio)” value was -1.11.
As for G10C U38A G63C U130G, the figure is -2.42; as for G10C C76G, -1.17.
In the case of G10C G51A U106A U112A, the “polymerase ribozyme fitness (log ratio)” value was -5.36.
As for G10A G69U G93A G110A A121U U132C, the figure is 0.47; as for G10U A18C, -2.58.
As for G10A G61C U87A C123A, the figure is -0.382; as for G10A G52U G63A C70G, -2.51.
On to G10U C20A C40U A46G C62U C82U C114A, for which the “polymerase ribozyme fitness (log ratio)” value was -3.36.
As for G10U A29G G52U C79G, the figure is -2.85.
Take G10U C13G C80U G135U: the “polymerase ribozyme fitness (log ratio)” value was -1.95.
In the case of C11A A26G G71C C101A C114U, the “polymerase ribozyme fitness (log ratio)” value was -6.79.
On to G10U A27G U59A C98U, for which the “polymerase ribozyme fitness (log ratio)” value is -6.42.
As for G10U C98A C123A, the figure is -4.36; as for G10C G69U G107C G120U, -2.44.
As for G10U G71C G135U, the figure is -3.12.
For the variant G10U C12A G60A, the “polymerase ribozyme fitness (log ratio)” value was -0.594.
In the case of G10U U38G U78A G128A, the “polymerase ribozyme fitness (log ratio)” value is -3.77.
For the variant G10C U106C G107C, the “polymerase ribozyme fitness (log ratio)” value is -5.64.
As for G10A G52C, the figure is -0.471; as for G10U G60C C79U G120C, 0.981; as for C11A C12G C70A A111C, -3.93.
As for G10U C34A G44A C72A, the figure is -5.99; as for C11A A121C, 1.02.
As for G10C U112G, the figure is 0.149; as for G10C G60U G135C, -0.497.
For G10C G47U C89U, the “polymerase ribozyme fitness (log ratio)” value was -5.13.
As for G10U C12U C22A C56U U112C, the figure is -1.17.
For the variant G10U C70A, the “polymerase ribozyme fitness (log ratio)” value is -1.66.
Regarding G10U G60C G69U A108G, the “polymerase ribozyme fitness (log ratio)” value is -4.87.
As for G10U G51A G61U A100C G113A G120A, the figure is -4.29; as for G10C G61U, -1.1.
Consider C11A A37C A50U, for which the “polymerase ribozyme fitness (log ratio)” value is -2.75.
As for G10A G52U C56G C98U G113U, the figure is -6.91; as for G10A G61A, 0.248; as for G10U G77U U78G C114A, -2.65.
As for G10C A43G G44C C49U G52C C56G G77A, the figure is -6.25; as for G10A G52U C72G C99U, -4.47.
As for G10U G39U G63U G120A, the figure is -0.0221.
For G10U G60C G122A, the “polymerase ribozyme fitness (log ratio)” value came to 0.255.
As for C11A C12A C28U C31G G52A G63C G113C U116A, the figure is -5.83.
In the case of G10C C15U A41C C53G C89U, the “polymerase ribozyme fitness (log ratio)” value is -3.28.
As for G10U C20A A50C C102A C114U, the figure is -6.03; as for G10U C13U C70A, -0.716.
As for G10C C89U U129C, the figure is -2.54; as for G10A G52A G60A C79A C115A, -2.07; as for G10C G63U, -2.32.
In the case of G10A G69U C79U C98A, the “polymerase ribozyme fitness (log ratio)” value is -2.
Take C11A A111U: the “polymerase ribozyme fitness (log ratio)” value was -4.43.
As for G10U C49U, the figure is -0.491.
As for G10C C12G C72A A105U, the figure is -3.93; as for G10C G42C G77A C85A C86G C114A, -5.24.
As for G10U G48A G93A C114G, the figure is -5.11; as for G10C G71U C114A A118C, -6.14; as for G10A U130C, 0.4.
Turning to C11A A26U C72A, the “polymerase ribozyme fitness (log ratio)” value is -5.37.
C11A C12A U14G A18C G63C C85U A103G U106A G107A A108C C114U G117C: the “polymerase ribozyme fitness (log ratio)” value is -6.98.
In the case of G10C C15A A50U C115U, the “polymerase ribozyme fitness (log ratio)” value is -5.25.
Regarding G10U C53G C70U C86U A119G, the “polymerase ribozyme fitness (log ratio)” value is -0.267.
On to G10U U109A, for which the “polymerase ribozyme fitness (log ratio)” value was -4.67.
Turning to G10U U112A C114U, the “polymerase ribozyme fitness (log ratio)” value is -1.01.
As for G10C U38G C53G G63C A111U C124U U133G, the figure is -5.15.
For G10C A18U G93A U130C, the “polymerase ribozyme fitness (log ratio)” value was -3.83.
As for G10U G61U, the figure is 0.128; as for G10U G47C G51A C53G C56U, -2.84.
For G10U U21G C70A, the “polymerase ribozyme fitness (log ratio)” value is -5.22.
For the variant G10A U96G, the “polymerase ribozyme fitness (log ratio)” value is -0.411.
Turning to G10U G110C, the “polymerase ribozyme fitness (log ratio)” value was -4.86.
As for G10A G60C C124A, the figure is 1.12.
As for G10U C72U C80U, the figure is -0.683.
Regarding G10U G44C C88U A105G G120C, the “polymerase ribozyme fitness (log ratio)” value was -3.52.
As for G10A U112G, the figure is 1.07.
Take G10C A27U U87G: the “polymerase ribozyme fitness (log ratio)” value was -3.55.
G10U G61A C123G: the “polymerase ribozyme fitness (log ratio)” value worked out at 1.03.
As to G10A U33C A90G A118G, the “polymerase ribozyme fitness (log ratio)” value was -6.66.
As for C11A, the “polymerase ribozyme fitness (log ratio)” value was -1.27.
As for G10U G35U A66U G69U G93A, the figure is -5.9.
As for G10C A18C C20U C56U, the figure is -3.11; as for G10U C13A A16U G110C U125A, -6.47.
Consider G10C U38G G42C A121U, for which the “polymerase ribozyme fitness (log ratio)” value is -1.8.
As for G10C C72U, the figure is -1.32; as for G10U G36C C86G G128C, -5.29.
As for C11A A100C, the figure is -2.81; as for G10C U78C U106A U109G, -4.27; as for G10U C73U U92A C101U C104U, -3.23.
As for G10C A16G A26U C72U C98U C115G, the figure is -6.74.
In the case of G10C G36A G71A, the “polymerase ribozyme fitness (log ratio)” value is -2.47.
As for G10U A27G U106C C123A, the “polymerase ribozyme fitness (log ratio)” value was 0.556.
As for G10C C99U, the figure is -4.44; as for C11A A50G U126A, -3.95.
For the variant G10C C62U, the “polymerase ribozyme fitness (log ratio)” value was -0.917.
As for C11A A74G, the figure is -1.56; as for G10C A41C G71C G122A, -2.21.
With G10U C72A, the “polymerase ribozyme fitness (log ratio)” value was -0.423.
As for G10U C72U, the figure is -0.415; as for G10U G19C A37U C72A C123G U130C, -1.39.
As for G10C U14C C15U C94U C97U U112A, the figure is -1.07; as for G10U G61A C123A U126G, -1.39.
Turning to G10A G51U C56G, the “polymerase ribozyme fitness (log ratio)” value is -5.12.
Consider G10C A27C U55C C70U, for which the “polymerase ribozyme fitness (log ratio)” value is -7.04.
As for G10A U54A A119G, the figure is 1.
As for G10U A103G, the figure is -6.29; as for C11A A18U A68G G120U, -4.2.
As for C11A A27G A41U C49G G61U, the figure is -3.34.
For C11A A27G, the “polymerase ribozyme fitness (log ratio)” value was -6.66.
As for G10A U55G G69C, the figure is -1.36; as for G10U G69U, 0.293; as for G10U C86A C102U, -2.34.
For C11A A37G G60U C101A U131G, the “polymerase ribozyme fitness (log ratio)” value is -2.57.
Regarding G10U G42U G45A G61U C85U, the “polymerase ribozyme fitness (log ratio)” value is -2.25.
As for G10A U55G, the figure is -0.319; as for G10U C13A C72U U109A, -6.62.
Consider G10C C49U C94U, for which the “polymerase ribozyme fitness (log ratio)” value was -1.58.
G10U C13G G45U C56A U87A C94U C124G: the “polymerase ribozyme fitness (log ratio)” value is -0.526.
As for G10U A50C C73A U78G A90G, the figure is -0.824; as for G10U C53A C56A G61U A90C, -5.6; as for G10U A18U A29U U54A A121C, -1.32.
As for G10C U92C G113U, the figure is -4.69; as for G10C G110C, -6.69.
As for G10U A26G, the figure is -2.71.
G10C C11A: the “polymerase ribozyme fitness (log ratio)” value is -1.06.
As for G10C A37C A66U, the figure is -2.37; as for C11A A119C C124G, -4.46.
As for G10U U59C A95U C102U, the figure is -3.58; as for G10C A41C G48A A74U C101U, -3.49.
As to G10C G39A G61A, the “polymerase ribozyme fitness (log ratio)” value is -1.27.
As to G10U G77A G93U U129C, the “polymerase ribozyme fitness (log ratio)” value is -2.07.
As for G10C C15U C53U C123A, the figure is 0.897; as for C11A A46C G63A U131G, -2.39.
